Source: paper PMC6028955
pKd: −log10 of the molar value.

Biological target: histone H2A–H2B (from chicken blood histone core octamers) (chicken) (UniProt P02263)
Experiment: ITC; 25 °C, 20 mM HEPES pH 7.5, 200 mM NaCl, 1 mM DTT; histones in the cell at 20–30 μM, SSRP1 variants in the syringe at 10 times that concentration

full-length DdSSRP1, sequence (Q54G78 whole entry): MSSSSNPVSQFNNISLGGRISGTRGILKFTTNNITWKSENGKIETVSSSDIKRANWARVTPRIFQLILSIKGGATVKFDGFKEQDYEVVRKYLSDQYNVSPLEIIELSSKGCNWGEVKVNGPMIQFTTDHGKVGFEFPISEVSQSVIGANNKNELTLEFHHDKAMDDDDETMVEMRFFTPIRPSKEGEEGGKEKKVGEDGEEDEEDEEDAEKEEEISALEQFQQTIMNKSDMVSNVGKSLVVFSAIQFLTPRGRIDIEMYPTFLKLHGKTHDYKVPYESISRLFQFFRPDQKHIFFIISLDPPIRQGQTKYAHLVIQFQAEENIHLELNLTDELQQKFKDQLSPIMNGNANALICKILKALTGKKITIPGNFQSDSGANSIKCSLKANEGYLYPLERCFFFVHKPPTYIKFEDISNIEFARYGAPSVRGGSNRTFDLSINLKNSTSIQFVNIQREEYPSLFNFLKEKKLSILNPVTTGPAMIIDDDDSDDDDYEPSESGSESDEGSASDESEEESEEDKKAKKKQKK
DdSSRP1 containing only the ID1 region (residues 479–527), sequence (Q54G78 479-527): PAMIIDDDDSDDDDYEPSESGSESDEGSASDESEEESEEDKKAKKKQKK

Substance | pKd
full-length DdSSRP1 (from UniProt Q54G78 1-527) (natural protein) | 6.51
DdSSRP1 containing only the ID1 region (residues 479–527) (from UniProt Q54G78 479-527) (domain or fragment) | 6.72
